Entries after “also recorded” stand apart in the source; their conditions may differ. Like-named read-outs stand apart in the source and are kept apart here.
Tests used:
[1] = Solubility/yield of SOCS3 recombinant proteins expressed and purified from E. coli; format: physicochemical
Experimental: Thereafter, the recombinant protein gene-introduced E. coli was inoculated in 7 ml of LB medium, and then incubated at 37° C. overnight. The E. coli was inoculated in 700 ml of LB medium and incubated at 37° C. until OD600 reached 0.6. To this culture medium, 0.6 mM of isopropyl-β-D-thiogalactoside (IPTG, Gen Depot, USA) was added as a protein expression inducer, followed by further incubation at 37° C. for 3 hours. This culture medium was centrifuged at 4° C. and 8,000 rpm for 10 minutes and a supernatant was discarded to recover a cell pellet. The cell pellet thus recovered was suspended in a lysis buffer (100 mM NaH2PO4, 10 mM Tris-HCl, 8 M Urea, pH 8.0), and cells were disrupted by sonication (on/off time: 30 sec/30 sec, on time 2 hours, amplify 40%), and centrifuged at 15,000 rpm for 30 min to obtain a soluble fraction and an insoluble fraction.
After purification, the proteins were put in a SnakeSkin Dialysis Tubing bag (pore size: 10000 mw, Thermo scientific, USA) and then they were dialyzed by physiological buffer (DMEM). The strain lysate where protein expression was not induced, the strain lysate where protein expression was induced by addition of IPTG, and purified proteins were loaded on SDS-PAGE to analyze protein expression characteristics and expression levels (FIGS. 19 and 20).
Solubility of aMTD/SD-fused SOCS3 proteins was scored on a 5 point scale compared with that of SOCS3 proteins lacking the solubilization domain.

STAT1 = assay: Inhibition of IFN-γ-induced STAT phosphorylation in PANC-1 cells (western blot), STAT1; format: cell-based; conditions: PANC-1, 10 ng/ml IFN-γ 15 min, 10 μM protein 2 hrs
Experimental: PANC-1 Cells (KCLB, Seoul, South Korea) were treated with 10 ng/ml IFN-γ (R&D systems, Abingdon, UK) for 15 min and treated with either DMEM (vehicle) or 10 μM aMTD/SD-fused SOCS3 recombinant proteins for 2 hrs. The cells were lysed in RIPA lysis buffer (Biosesang, Seongnam, Korea) containing proteinase inhibitor cocktail (Roche, Indianapolis, Ind., USA), incubated for 15 min at 4° C., and centrifuged at 13,000 rpm for 10 min at 4° C. Equal amounts of lysates were separated on 10% SDS-PAGE gels and transferred to a nitrocellulose membrane. The membranes were blocked using 5% skim milk in TBST and for western blot analysis incubated with the following antibodies: anti-phospho-STAT1 (Cell Signaling Technology, USA) and anti-phospho-STAT3 (Cell Signaling Technology, USA), then HRP conjugated anti-rabbit secondary antibody (Santacruz).

PANC-1 cells = assay: Apoptotic cell analysis by TUNEL assay in pancreatic carcinoma cells; format: cell-based; conditions: PANC-1, 10 uM
Experimental: PANC-1 cells (pancreatic carcinoma cell line) were seeded in a 16-well chamber slide at a density of 5×10^3 cells/well, and then treated with 10 uM of aMTD/SD-fused SOCS3 for 24 hours. Apoptotic cells were analyzed using terminal dUTP nick-end labeling (TUNEL) assay with In Situ Cell Death Detection kit TMR red (Roche, 4056 Basel, Switzerland). Cells were treated with either 10 μM SOCS3 recombinant protein or buffer alone for 16 hrs with 2% fetal bovine serum (Hyclone, Logan, Utah, USA). Treated cells were washed with cold PBS two times, fixed in 4% paraformaldehyde (PFA, Junsei, Tokyo, Japan) for 1 hr at room temperature, and incubated in 0.1% Triton X-100 for 2 min on the ice. Cells were washed with cold PBS twice, and treated TUNEL reaction mixture for 1 hr at 37° C. in dark, washed cold PBS three times and observed by fluorescence microscopy (Nikon, Tokyo, Japan).

AGS cells = assay: Induction of apoptosis by Annexin V/7-AAD staining in gastric carcinoma cells; format: cell-based; conditions: 10 uM, 14 hours
Experimental: AGS cells (gastric carcinoma cell line) (American Type Culture Collection; ATCC) were seeded in a 12-well plate at a density of 1×10^5 cells/well, and then treated with 10 uM of aMTD/SD-fused SOCS3 for 14 hours. Cancer cell death was analyzed by Annexin V analysis. Annexin V/7-Aminoactinomycin D (7-AAD) staining was performed using flow cytometry according to the manufacturer's guidelines (BD Pharmingen, San Diego, Calif., USA). Briefly, cells were washed three times with ice-cold PBS. The cells were then resuspended in 100 μl of binding buffer and incubated with 1 μl of 7-AAD and 1 μl of annexin V-PE for 30 min in the dark at 37° C. Flow cytometric analysis was immediately performed using a guava easyCyte™ 8 Instrument (Merck Millipore, Darmstadt, Germany).

STAT3 = assay: Cell-to-cell function: phospho-STAT3 in PANC-1 cells seeded with protein-treated RAW 264.7 cells (western blot); format: cell-based; conditions: RAW 264.7 treated with 5 μM protein 2 hour, seeded on PANC-1, 20 ng/ml IFN-γ 15 minutes
Experimental: For this, RAW 264.7 cells were treated with 5 μM of FITC-labeled HM165S3B, HTS3B for 2 hour and washed with PBS two times. Thereafter, they were seeded on PANC-1 cell, incubated for 2 hours and treated with 20 ng/ml of IFN-γ for 15 minutes, followed by Western blotting in the same manner as in Example 8-1. And Cell-to-cell protein transfer was assessed by flow cytometry.

[2] = test system: HCCs (Hep3B, HepG2, Huh7 and SK-HEP-1); assay: Inhibition of cell cycle progression (PI staining, flow cytometry); format: cell-based, human; conditions: 10 uM, 8 hrs
Experimental: To further determine the effect of iCP-SOCS3 on the tumorigenicity of hepatocellular carcinoma cells, we subsequently investigated whether iCP-SOCS3 regulates cell cycle progression in HCCs (Hep3B, HepG2, Huh7 and SK-HEP-1).
(§1) HCCs and normal cells were treated with 10 uM protein (Non-CP-SOCS3 (HS3B) and iCP-SOSC3 (HM165S3B)) for 8 hrs. After the treatment, cells were washed twice with cold PBS and re-suspended in 1 ml cold PBS, fixed in cold 70% ethanol, washed with cold PBS twice and re-suspended in PI master mix (PI 10 ug/ml (SIGMA, USA), 50 ug/ml RNase A (Invitrogen, USA) in staining buffer) at a final cell density of 2×10^5 cell/ml. The cell mixtures were incubated 30 min in the dark at 4° C. Flow cytometric analysis was immediately performed using a guava easyCyte™ 8 Instrument (Merck Millipore, Darmstadt, Germany).

normal cells = assay: as above; format: cell-based; conditions: 10 uM, 8 hrs
Experimental: as §1

Hep3B2.1-7 tumor = assay: Anti-tumor activity in cell-derived xenograft model; format: in vivo, Balb/c nu/nu mice; conditions: IV 600 μg/head for 21 days
Experimental: Female Balb/c^nu/nu mice (5-week-old, Doo-Yeol Biotech Co. Ltd. Korea) were subcutaneously implanted with Hep3B2.1-7 tumor block (1 mm^3) into the left back side of the mouse. […] Tumor size was monitored by measuring the longest (length) and shortest dimensions (width) once a day with a dial caliper, and tumor volume was calculated as width2×length×0.5.

B1: HM165S3B: His-tagged recombinant protein of aMTD165, human SOCS3 and solubilization domain B; prototype improved cell-permeable SOCS3 (protein)
chain: MGSSHHHHHHSSGLVPRGSHMALAVPVALAIVPVTHSKFPAAGMETSRPLDTSLRLKTFSSKSEYQLVVNAVRKLQESGFYWSAVTGGEANLLLSAEPAGTFLIRDSSDQRHFFTLSVKTQSGTKNLRIQCEGGSFSLQSDPRSTQPVPRFDCVLKLVHHYMETPPPGAPSFPSPPTEPSSEVPEQPSAQPLPGSPPRRAYYIYSGGEKIPLVLSRPLSSNVATLQHLCRKTVNGHLDSYEKVTQLPGPIREFLDQYDAPLGSMAEQSDKDVKYYTLEEIQKHKDSKSTWVILHHKVYDLTKFLEEHPGGEEVLGEQAGGDATENFEDVGHSTDARELSKTYIIGELHPDDRSKIAKPSETL
modifications: Amino acid sequence of HM165S3B
Q: Which solubility/yield [1] does the source give for B1 here?
A: high solubility/yield

Q: What about the “solubility (tendency to precipitate)” value ([1]; expressed and purified in E. coli) of the same molecule?
A: had little tendency to precipitate

Q: And the solubility/yield ([1]; listed as SDB-fused iCP-SOCS3 recombinant protein)?
A: showed the highest solubility/yield

Q: What about the solubility/yield ([1]; listed as aMTD165/SD-fused SOCS3 recombinant proteins) of the same molecule?
A: much higher than that of TAT/SD-fused SOCS3 or PolyR/SD-fused SOCS3 recombinant proteins

Q: What about the “IFN-γ-induced phosphorylation of STAT1” value (STAT1) of the same molecule?
A: suppressed IFN-γ-induced phosphorylation of STAT1 and STAT3

Q: What about the “induction of cell death (TUNEL)” value (PANC-1 cells) of the same molecule?
A: induced death of the largest number of cancer cells

Q: What about the “induction of apoptosis (Annexin V)” value (AGS cells) of the same molecule?
A: showed high anticancer efficacy; also recorded: effects of inducing apoptosis

Q: And the “induction of apoptosis (Annexin V)” value (AGS cells; listed as aMTD165-fused SOCS3 recombinant protein)?
A: induced death of the largest number of cancer cells

Q: What about the “phospho-STAT3 (cell-to-cell function)” value (STAT3) of the same molecule?
A: reduced

Q: And the “cell cycle progression in HCCs” value [2]?
A: efficiently inhibited cell cycle progression

Q: What about the “cell cycle progression in normal cells” value (normal cells) of the same molecule?
A: did not inhibit cell cycle progression

Q: What about the “tumor growth inhibition at day 21” value (Hep3B2.1-7 tumor) of the same molecule?
A: 80%

Q: What about the “tumor growth inhibition at day 35” value (Hep3B2.1-7 tumor; 2 weeks after termination) of the same molecule?
A: 70%
